According to patent publication US20220088215A1:

Molecular target: Asialoglycoprotein receptor 1 (ASGR1) on the surface of HEPG2 cells (human) (UniProt P07306)
Experiment: cell-based or functional assay

Chain of UniProt P07306 (P07306 whole entry): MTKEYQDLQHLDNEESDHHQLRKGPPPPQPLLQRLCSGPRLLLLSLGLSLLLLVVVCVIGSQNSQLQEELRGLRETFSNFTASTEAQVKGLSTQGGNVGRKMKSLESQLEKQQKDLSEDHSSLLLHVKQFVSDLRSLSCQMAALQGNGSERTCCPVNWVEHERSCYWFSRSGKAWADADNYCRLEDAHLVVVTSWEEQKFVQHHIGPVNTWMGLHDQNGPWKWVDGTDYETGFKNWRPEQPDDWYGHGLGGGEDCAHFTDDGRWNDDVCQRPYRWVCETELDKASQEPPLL

Anti-Asialoglycoprotein Receptor 1/HL-1 antibody (abCAM, Product Number ab49355)
improvement of mmu-miR-298-5p uptake efficiency into HEPG2 cells, against unmodified EVs: 60% | relative quantification of mmu-miR-298-5p in Hep-G2 cells (qRT-PCR, relative ratio to control cells) (relative ratio): 2000 | relative quantification of mmu-miR-298-5p in Hep-G2 cells, against DharmaFECT transfection: 8 fold
